Experimental data reported in paper PMC5855864.

Assays:
Experiment in all cases: SPR
[1] = molecular target: Protein A, native (Staphylococcus aureus) (UniProt P38507); settings: aptamer immobilized; 100 mM NaCl, 20 mM Tris-HCl pH 7.6, 10 mM MgCl2, 5 mM KCl, 1 mM CaCl2, 0.005% surfactant P20, 21 °C (SPR Biacore X100)
Protein A, recombinant = Protein A, recombinant (UniProt P38507); settings: aptamer immobilized; 100 mM NaCl, 20 mM Tris-HCl pH 7.6, 10 mM MgCl2, 5 mM KCl, 1 mM CaCl2, 0.005% surfactant P20, 21 °C (SPR Biacore X100)
[2] = molecular target: Protein A, native, biotinylated (Staphylococcus aureus) (UniProt P38507); settings: protein immobilized, aptamer as analyte; 100 mM NaCl, 20 mM Tris-HCl pH 7.6, 10 mM MgCl2, 5 mM KCl, 1 mM CaCl2, 0.005% surfactant P20, 21 °C (SPR Biacore X100)

Row | Sequence | Kd [1] [nM] | Kd (Protein A, recombinant) [nM] | Kd [2] [nM]
1 | ATACCAGCTTATTCAATTGCGCACCACGGGAGTTGGCCACATTTGGAGTTGTTTTTGCACAATCGTAATCAGTTAG [PA-C10 (3'-biotin)] | 588 | 2730 | 
2 | ATACCAGCTTATTCAATTGGGCACCACGGGAGTCGGCCACATTTGGAGTTGTTTTTGCACAATCGTAATCAGTTAG [PA#14/89 (3'-biotin)] | 467 | 2660 | 
3 | ATACCAGCTTATTCAATTAGCAACATGAGGGGGATAGAGGGGGTGGGTTCTCTCGGCTACAATCGTAATCAGTTAG [PA#2/8 (unmodified)] |  |  | 3730
4 | ATACCAGCTTATTCAATTAGCAACATGAGGGGGATAGAGGGGGTGGGTTCTCTCGGCTACAATCGTAATCAGTTAG [PA#2/8 (3'-biotin)] | 20 | 92 | 
5 | ATACCAGCTTATTCAATTAGCAACATGAGGGGGATGGAGGGGGTGGGTTCTCTCGGCTACAATCGTAATCAGTTAG [PA-C4] |  | 222 | 
6 | ATACCAGCTTATTCAATTAGGCCAGATGAGGGGTGCCCATGGCGGGGTGGCTGCTCCAACAATCGTAATCAGTTAG [PA-C8 (3'-biotin)] | 99 | 443 | 
7 | ATACCAGCTTATTCAATTAGCAACATGAGGGGGGATAGAGGGGGTGGGTTCTCTCGGCTACAATCGTAATCAGTTAG [PA-C7] |  | 1610 | 
